# Data: patent publication US10154957B2, “Microneedle device having a peptide therapeutic agent and an amino acid and methods of making and using the same” (3M INNOVATIVE PROPERTIES COMPANY, priority 2011, dated 2018)
# Experiments:
# [1] = Stability of insulin in coating on flood-coated microneedle arrays stored at 40° C./96% RH (HPLC); format: physicochemical; settings: insulin 5 mg/mL in 0.1 N acetic acid
# Method: The protein or polypeptide content in the formulation coated on the microneedle arrays was determined using an Agilent 1100 HPLC system (Agilent Technologies, Wilmington, Del.) equipped with a binary pump, well-plated thermostated autosampler, thermostated column compartment, and a diode array UV detector. A Zorbax 300SB-C8 column (Agilent Technologies, Wilmington, Del.) having a 5 μm particle size and 2.1×150 mm inner diameter was used for the separations. The column was maintained at 50° C. The mobile phase consisted of two eluents. Eluent A was 0.1% TFA (trifluoroacetic acid) in water and eluent B was 0.1% TFA in acetonitrile (Spectrum Chemical, New Brunswick, N.J.). A linear gradient from 80/20 to 50/50 (A/B) was applied over 30 minutes. The flow rate was 0.4 mL/minute and the UV detection wavelength was set at 214 nm. The total run time was 34 minutes and the sample injection volume was 15 μL.
# The pH of the sample formulation was 3.0-3.5. […] The pH of the control formulation was 3.0-3.5. Microneedle arrays were coated with either the sample or the control formulation. The coating was applied by dropwise addition of 50 μL of the formulation to the portion of the array defined by the octagon shaped pattern of microneedles. The flood coated arrays (both sample and control formulation coated) were dried in an oven at 35° C. for about 15 hours.
# After drying, the coated arrays were placed in a storage chamber that was maintained at 40° C. and 96% relative humidity (RH). […] At the designated time point, an array was taken from the chamber and washed with 0.1 N acetic acid (1 mL) to remove the coating from the array. […] The arrays used as reference standards were stored in a refrigerator at about 4° C. and analyzed within one day of being prepared.
# The same procedure as described in Example 5 was used with the exception that the sample formulation contained 12 mg/mL of L-arginine hydrochloride, instead of L-histidine monohydrochloride. The pH of the sample formulation was 3.0-3.5.
# [2] = as above; format: physicochemical; settings: Amino Acid L-Histidine (His-HCl 12 mg/mL), insulin 5 mg/mL in 0.1 N acetic acid
substance,measurement,setting,value
Insulin,Percent of Initial Insulin Content in the Coating,"[1]; Amino Acid L-Arginine (Arg-HCl 12 mg/mL), Day 1 at 40° C./96% RH",75.4%
same,Percent of Initial Insulin Content in the Coating,"[1]; Amino Acid L-Arginine (Arg-HCl 12 mg/mL), Day 3 at 40° C./96% RH",45.9%
same,Percent of Initial Insulin Content in the Coating,"[1]; Amino Acid L-Arginine (Arg-HCl 12 mg/mL), Day 7 at 40° C./96% RH",27.1%
same,Percent of Initial Insulin Content in the Coating,"[1]; Amino Acid L-Arginine (Arg-HCl 12 mg/mL), Initial",100%
same,Percent of Initial Insulin Content in the Coating,"[1]; Amino Acid None (control), Day 3 at 40° C./96% RH",0%
same,Percent of Initial Insulin Content in the Coating,"[1]; Amino Acid None (control), Day 7 at 40° C./96% RH",0%
same,Percent of Initial Insulin Content in the Coating,"[1]; Amino Acid None (control), Day 14 at 40° C./96% RH",0%
same,Percent of Initial Insulin Content in the Coating,"[1]; Amino Acid None (control), Initial",100%
same,Percent of Initial Insulin Content in the Coating,[2]; Day 1 at 40° C./96% RH,95.3%
same,Percent of Initial Insulin Content in the Coating,[2]; Day 3 at 40° C./96% RH,93.5%
same,Percent of Initial Insulin Content in the Coating,[2]; Day 7 at 40° C./96% RH,79.2%
same,Percent of Initial Insulin Content in the Coating,[2]; Day 14 at 40° C./96% RH,34.9%
same,Percent of Initial Insulin Content in the Coating,[2]; Initial,100%
